Measurements from paper doi:10.1101/402123 (bioRxiv, 2018).
One block for each binder: values may come before it. No end group written: not given here. fluorescein = N-terminal fluorescein label

B1: integrin β4 1436-1666 (β4-CS-FnIII-3,4) (domain or fragment, human, UniProt P16144-2 1436-1666, looked up)
chain: LPRDYSTLTSVSSHDSRLTAGVPDTPTRLVFSALGPTSLRVSWQEPRCERPLQGYSVEYQLLNGGELHRLNIPNPAQTSVVVEDLLPNHSYVFRVRAQSQEGWGREREGVITIESQVHPQSPLCPLPGSAFTLSTPSAPGPLVFTALSPDSLQLSWERPRRPNGDIVGYLVTCEMAQGGGPATAFRVDGDSPESRLTVPGLSENVPYKFKVQARTTEGFGPEREGIITIES
B4: fluorescein-labeled BP230 peptide 26-55 (peptide, UniProt Q03001-8 26-55, looked up)
peptide: fluorescein-DSNENLLLVHCGPTLINSCISFGSESFDGH
modifications: cysteine pairing not given here

How the values were obtained:
[1] = biological target: T1, fluorescein-labeled BP230 peptide 37-55 (human, UniProt Q03001-8 37-55); experiment: fluorescence polarisation
T1 peptide (looked up): fluorescein-GPTLINSCISFGSESFDGH

BP230 10-162 T39D = biological target: T2, BP230 10-162 T39D (human, UniProt Q03001-8 10-162, T39D, Oregon Green 488 on thiol groups); experiment: fluorescence polarisation
T2 sequence (looked up): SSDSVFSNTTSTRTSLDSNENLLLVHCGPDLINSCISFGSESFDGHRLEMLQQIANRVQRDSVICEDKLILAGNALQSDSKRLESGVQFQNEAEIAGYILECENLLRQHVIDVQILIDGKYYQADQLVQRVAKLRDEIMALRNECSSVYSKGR

BP230 41-162 = biological target: T3, BP230 41-162 (human, UniProt Q03001-8 41-162, Oregon Green 488 on thiol groups); experiment: fluorescence polarisation
T3 sequence (looked up): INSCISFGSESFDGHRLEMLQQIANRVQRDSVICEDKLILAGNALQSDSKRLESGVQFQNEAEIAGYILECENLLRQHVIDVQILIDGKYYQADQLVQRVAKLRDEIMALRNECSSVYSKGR

[2] = biological target: fluorescein-labeled BP230 peptide 26-47 (human) (UniProt Q03001); experiment: fluorescence polarisation
[3] = biological target: B4; experiment: fluorescence polarisation
[4] = biological target: B1; experiment: fluorescence polarisation
[5] = biological target: T4, β4-CS-FnIII-3,4 (1436-1666) T1663R (human, UniProt P16144-2 1436-1666, T1663R); experiment: fluorescence polarisation
T4 sequence (looked up): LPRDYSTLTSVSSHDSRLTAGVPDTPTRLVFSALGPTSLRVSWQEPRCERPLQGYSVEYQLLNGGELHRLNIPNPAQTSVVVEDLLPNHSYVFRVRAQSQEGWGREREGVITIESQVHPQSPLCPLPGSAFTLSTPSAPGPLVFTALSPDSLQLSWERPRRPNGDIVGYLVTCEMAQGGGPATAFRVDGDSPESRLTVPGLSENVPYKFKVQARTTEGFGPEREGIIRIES

[6] = biological target: T5, β4-FnIII-3,4 (1457-1666) mutant T1663R (human, UniProt P16144-2 1457-1666, T1663R); experiment: crystal structure
T5 sequence (looked up): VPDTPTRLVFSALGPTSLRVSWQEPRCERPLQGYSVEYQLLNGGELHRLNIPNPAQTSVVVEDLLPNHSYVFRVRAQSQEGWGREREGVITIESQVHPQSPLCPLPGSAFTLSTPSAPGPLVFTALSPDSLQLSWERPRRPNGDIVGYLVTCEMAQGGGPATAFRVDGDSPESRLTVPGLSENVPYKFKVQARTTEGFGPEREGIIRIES

Binder: B1
fold increase in Kd against the BP230 26-55 peptide [1]: 3 fold
fold increase in Kd against WT BP230 10-162 (BP230 10-162 T39D): ~3 fold
fold increase in Kd against the longer BP230 constructs (BP230 41-162): 5 fold
fold increase in Kd against the BP230 26-55 peptide [2]: 5 fold

fold reduction in Kd against WT β4 [3]: ~8 fold
B2: β4-CS-FnIII-3,4 (1436-1666) I1661R/T1663R (domain or fragment, human, UniProt P16144-2 1436-1666, looked up)
chain: LPRDYSTLTSVSSHDSRLTAGVPDTPTRLVFSALGPTSLRVSWQEPRCERPLQGYSVEYQLLNGGELHRLNIPNPAQTSVVVEDLLPNHSYVFRVRAQSQEGWGREREGVITIESQVHPQSPLCPLPGSAFTLSTPSAPGPLVFTALSPDSLQLSWERPRRPNGDIVGYLVTCEMAQGGGPATAFRVDGDSPESRLTVPGLSENVPYKFKVQARTTEGFGPEREGRIRIES

binding result [4]: binds
B3: BP230 10-162 S46A (domain or fragment, human, UniProt Q03001-8 10-162, looked up)
chain: SSDSVFSNTTSTRTSLDSNENLLLVHCGPTLINSCIAFGSESFDGHRLEMLQQIANRVQRDSVICEDKLILAGNALQSDSKRLESGVQFQNEAEIAGYILECENLLRQHVIDVQILIDGKYYQADQLVQRVAKLRDEIMALRNECSSVYSKGR
modifications: Oregon Green 488 on thiol groups

Binder: B4
binding result [5]: binds

fold increase in Kd against WT β4 [3]: > 2 fold
B5: β4-CS-FnIII-3,4 (1436-1666) P1576R (domain or fragment, human, UniProt P16144-2 1436-1666, looked up)
chain: LPRDYSTLTSVSSHDSRLTAGVPDTPTRLVFSALGPTSLRVSWQEPRCERPLQGYSVEYQLLNGGELHRLNIPNPAQTSVVVEDLLPNHSYVFRVRAQSQEGWGREREGVITIESQVHPQSPLCPLPGSAFTLSTPSAPGRLVFTALSPDSLQLSWERPRRPNGDIVGYLVTCEMAQGGGPATAFRVDGDSPESRLTVPGLSENVPYKFKVQARTTEGFGPEREGIITIES

binding result [6]: binds
Binder: DSNENLLLVHCGPTLINSCISFGSESFDGH (peptide, UniProt Q03001-8 26-55, looked up) [unlabeled BP230 peptide 26-55]
